B1: RegA (response regulator RegA of Rhodobacter capsulatus), wild type, tagless (natural protein, UniProt P42508 1-184, looked up)
chain: MAEEEFAELGSDRSLLLVDDDNAFLTRLARAMEKRGFQTEIAETVSAGKAIVQNRAPAYAVIDLRLEDGNGLEVVEALRERRPEARIVVLTGYGAIATAVAAVKMGATDYLSKPADANDITNALLAKGEALPPPPENPMSADRVRWEHIQRVYELCDRNVSETARRLNMHRRTLQRILAKRSPR
notes: RegA, response regulator of the RegB/RegA two-component system, Rhodobacter capsulatus; wild-type codon at residue 95 (made from the RegA* overexpression vector of Du et al. 1998); a single cysteine, Cys156, in the tryptic peptide VYELCDR; The dimer formed with Cu2+ and O2 is joined by an intermolecular disulfide bond between Cys156 of two chains; also called apo-RegA; RegA monomer

Tests used:
[1] = system: RegA, Cu2+-stimulated disulfide-linked dimer (unphosphorylated) (Rhodobacter capsulatus); assay: DNase I footprinting; conditions: 20 mM Tris-HCl pH 8.0, 2 mM MgCl2, 0.5 mM CaCl2, 0.1 mg/mL BSA, 50 nM DNA probe, 20 uL, 15 min at room temperature
[2] = biological target: the molecule itself; assay: non-reducing SDS-PAGE; monomeric RegA loaded with Cu2+ by buffer exchange aerobically (20 mM Tris-HCl pH 8.0, 250 mM NaCl), run at once on a non-reducing gel without DTT; time course in air from one minute

Row | Molecule | Kd [1] | stoichiometry N [2]
1 | ccoN promoter fragment (299 bp) | 1000 nM | –
2 | B1 | – | 2

From PMC9147068, “The Response Regulator RegA Is a Copper Binding Protein That Covalently Dimerizes When Exposed to Oxygen” (Microorganisms, 2022)
